Blank lines part the entries; values can stand above or below the binder they belong to.
Key:
human EGFR on cells [1] = molecular target: T1, human EGFR on cells (human, UniProt P00533 25-1210); assay: cell-based or functional assay
human EGFR on cells [2] = molecular target: T1, human EGFR on cells; assay: flow cytometry on A-431 cells, 37°C; mean of 4 experiments
human EGFR on cells [3] = molecular target: T1, human EGFR on cells; assay: cell-based or functional assay; remark: listed apart in the source
human EGFR on cells [4] = molecular target: T1, human EGFR on cells; assay: cell-based or functional assay; remark: listed apart in the source
[5] = molecular target: T2, CD16A on primary human NK-cells (human, UniProt P08637 17-254); assay: flow cytometry on primary human NK-cells, 37°C, without IgG; mean of 2 experiments
T2 construct: whole, on cells; also called FcγRIIIA
Protocol: (§1) After the last staining step, the cells were washed again and resuspended in 0.2 mL of FACS buffer containing 2 μg/mL propidium iodide (PI) (Sigma, cat.: P4170) in order to exclude dead cells. The fluorescence of 2-5×10³ living cells was measured using a Millipore Guava EasyCyte flow cytometer (Merck Millipore, Schwalbach, Germany). Mean fluorescence intensities of the cell samples were calculated using Incyte software (Merck Millipore, Schwalbach, Germany). After subtracting the fluorescence intensity values of the cells stained with the secondary and tertiary reagents alone, the values were used for non-linear regression analysis using the GraphPad Prism software (GraphPad Prism version 6.00 for Windows, GraphPad Software, La Jolla Calif. USA). For the calculation of KD, the equation for one-site-binding (hyperbola) was used.
(§2) To assess the impact of physiological concentrations of human IgG on the binding capacity of bispecific EGFR/CD16A antigen-binding proteins, binding assays with several bispecific EGFR/CD16A antigen-binding proteins on primary human NK-cells were performed in presence or absence of 10 mg/mL polyclonal human IgG as exemplarily shown in FIG. 10.

EGFR-antigen (ELISA) = molecular target: T3, EGFR-antigen (ELISA); assay: ELISA, coated EGFR-Fc antigen, aTriFlex titrated (His-tagged analyte, Penta-HIS-HRP per paragraph 126)
T3 construct: also called EGFR-Fc
Protocol: (§3) 96-well ELISA plates (Immuno MaxiSorp; Nunc) were coated overnight at 4° C. with recombinant antigen or antibodies in 100 mM Carbonate-bicarbonate buffer. […] After a blocking step with 3% (w/v) skim milk powder (Merck) dissolved in PBS, serial dilutions of the different antibodies or soluble antigens in PBS containing 0.3% (w/v) skim milk powder were incubated on the plates for 1.5 h at room temperature. After washing three times with 300 μL per well of PBS containing 0.1% (v/v) Tween 20, plates were incubated with detection antibodies for 1 h at room temperature. For the detection of His-tagged analytes, Penta-HIS-HRP (Qiagen) was used at 1:3000 dilution. […] After washing three times with 300 μL per well of PBS containing 0.1% (v/v) Tween 20, plates were incubated with Tetramethylbenzidine (TMB) substrate (Seramun) until colour development was clearly visible. The reaction was stopped through the addition of 100 μL per well of 0.5 M H₂SO₄. The absorbance was measured at 450 nm using a multilabel plate reader (Victor, Perkin Elmer).

CD16A-antigen (ELISA) = molecular target: T4, CD16A-antigen (ELISA); assay: ELISA, coated CD16A-Fc antigen, aTriFlex titrated (His-tagged analyte, Penta-HIS-HRP per paragraph 126)
T4 construct: also called CD16A-Fc
Protocol: as §3

[6] = molecular target: T2, CD16A on primary human NK-cells; assay: flow cytometry on primary human NK-cells, 37°C, with 10 mg/mL polyclonal human IgG (Gammanorm); with 10 mg/mL polyclonal human IgG (Gammanorm)
human EGFR on cells [7] = molecular target: T1, human EGFR on cells; assay: flow cytometry on EGFR-expressing A-431 cells, 37° C.
[8] = molecular target: T2, CD16A on primary human NK-cells; assay: flow cytometry on primary human NK-cells, 37° C., without gammanorm
Protocol: as §1, §2

[9] = molecular target: T5, Cynomolgus FcRn (FCGRT/B2M) (cynomolgus, UniProt Q8SPV9 24-297; Q8SPW0 21-119, biotin-labelled (Avi-Tag)); assay: SPR (Biacore T200), pH 6.0, biotinylated FcRn captured, multi cycle kinetics, 1:1 model
T5 construct: Purchased; also called FcRn (FCGRT/B2M), Avi-Tag, Biotin-Labeled, (Cynomolgus) Acro Cat #FCM-C82W5
Protocol: (§4) Binding of EGFR/CD16A antigen-binding proteins to FcRn (human, cynomolgus, murine) was measured on a Biacore T200 Instrument at 25° C. using PBS-T buffer pH 6.0 as running buffer and for dilution (1×Gibco PBS, 0.005% Tween20, titrated to pH 6.0 using 4 M HCl). For this purpose, a Multi Cycle Kinetic experiments was performed using Biotin CAPture Kit (GE Healthcare). For activation of the sensor surface, Biotin CAPture reagent (GE Healthcare) was injected to Flow Cells Fc 1-4 (100 sec, 5 μL/min) resulting in a response of 2100 RU-2800 RU. Biotinylated FcRn of different species were injected to Flow Cell Fc 2 (5 μL/min) resulting in a response of about 8-15 RU. A dilution series of EGFR/CD16A antigen-binding proteins was in (pH 7.4) as running buffer and for dilution. […] Chip was regenerated using Regeneration solution (GE Healthcare) (10 μL/min, Flow cells 1-4, 120 sec). Sensorgrams are referenced by subtraction of zero concentration cycle and subtraction of signals in reference channel Fc 1 (Fc 2-1, Fc 3-1, Fc 4-1). […] Chip was regenerated using Regeneration solution (GE Healthcare) (10 μL/min, Flow cells 1-4, 120 sec). […] Binding kinetics were evaluated by fitting data to 1:1 Binding Model (Rmax and RI locally fitted) using Biacore T200 Evaluation Software.

Human FcRn (FCGRT/B2M) = molecular target: T6, Human FcRn (FCGRT/B2M) (human, UniProt P55899 24-297; P61769 21-119, biotin-labelled (site not stated)); assay: as above
T6 construct: Purchased; also called FcRn (FCGRT/B2M), His-Tag, Biotin-Labeled, (Human) HiP Cat #71283

Mouse FcRn (FCGRT/B2M) = molecular target: T7, Mouse FcRn (FCGRT/B2M) (mouse, UniProt Q61559 22-297; P01887 21-119, biotin-labelled (Avi-Tag)); assay: as above
T7 construct: Purchased; also called murine FcRn; murine FcRn receptor
T7 sequence (looked up): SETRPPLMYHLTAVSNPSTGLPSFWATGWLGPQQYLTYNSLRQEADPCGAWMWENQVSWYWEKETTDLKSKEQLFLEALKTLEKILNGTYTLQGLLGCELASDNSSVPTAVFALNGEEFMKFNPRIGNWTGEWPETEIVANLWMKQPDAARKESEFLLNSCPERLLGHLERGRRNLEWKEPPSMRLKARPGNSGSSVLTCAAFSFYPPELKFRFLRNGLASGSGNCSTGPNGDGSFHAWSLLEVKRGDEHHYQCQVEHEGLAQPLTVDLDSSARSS
T7 sequence (b2m, looked up): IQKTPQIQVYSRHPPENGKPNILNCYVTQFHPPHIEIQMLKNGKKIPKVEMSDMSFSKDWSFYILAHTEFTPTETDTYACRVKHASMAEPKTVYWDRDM
Protocol: as §4

[10] = molecular target: T2, CD16A on primary human NK-cells; assay: flow cytometry on primary human NK-cells, 37°C, with 10 mg/mL polyclonal human IgG (Gammanorm); mean of 2 experiments
Protocol: as §1, §2

EGFR-mFc = molecular target: T8, EGFR-mFc; assay: ELISA, coated EGFR-mFc antigen, Bi-scFv-Fc titrated, bound construct detected with biotinylated CD16-Fc and streptavidin-HRP
T8 construct: Coated at 2.5 µg/mL in ELISA; also called monomeric EGFR-mFc; EGFR-mFc antigen
Protocol: as §3

huCD16A^RV-His = molecular target: T9, huCD16A^RV-His (human); assay: ELISA, coated EGFR/CD16A Bi-scFv-Fc, soluble huCD16A^RV-His titrated (the concentration axis is that of the antigen), Penta-HIS-HRP per paragraph 126
T9 construct: soluble, His-tagged; also called CD16-His antigen
Protocol: as §3

T5 sequence (Q8SPV9 24-297 limits assumed, chain 1 of 2): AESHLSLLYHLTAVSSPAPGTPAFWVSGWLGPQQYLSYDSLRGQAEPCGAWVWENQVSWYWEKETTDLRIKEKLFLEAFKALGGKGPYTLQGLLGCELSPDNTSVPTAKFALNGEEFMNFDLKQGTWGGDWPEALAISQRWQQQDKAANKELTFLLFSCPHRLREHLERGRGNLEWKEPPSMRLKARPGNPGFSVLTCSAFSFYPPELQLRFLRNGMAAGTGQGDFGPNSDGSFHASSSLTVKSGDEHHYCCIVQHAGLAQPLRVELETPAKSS
T5 sequence (Q8SPW0 21-119 limits assumed, chain 2 of 2): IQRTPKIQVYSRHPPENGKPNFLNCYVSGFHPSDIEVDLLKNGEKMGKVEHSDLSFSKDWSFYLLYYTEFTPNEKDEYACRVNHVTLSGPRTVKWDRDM

EC50, inhibition of EGF-induced EGFR phosphorylation (phospho-EGFR ELISA, A-431 cells), Exp.2 (human EGFR on cells [1]): > 100 µg/mL
Kd (human EGFR on cells [2]): 2 nM
B1: scFv-IgAb_01 (bispecific antibody)
chain 1: QVQLQESGPGLVKPSETLSLTCTVSGGSVSSGSYYWSWIRQPPGKGLEWIGYIYYSGSTNYNPSLKSRVTISVDTSKNQFSLKLSSVTAADTAVYYCARNPISIPAFDIWGQGTMVTVSSASTKGPSVFPLAPSSKSTSGGTAALGCLVKDYFPEPVTVSWNSGALTSGVHTFPAVLQSSGLYSLSSVVVPSSSLGTQTYICNVNHKPSNTKVDKKVEPKSCDKTHTCPPCPAPEFEGGPSVFLFPPKPKDTLMISRTPEVTCVVVAVSHEDPEVKFNWYVDGVEVHNAKTKPREEQYNSTYRVVSVLTVLHQDWLNGKEYKCKVSNKALPAPIEKTISKAKGQPREPQVYTLPPSREEMTKNQVSLTCLVKGFYPSDIAVEWESNGQPENNYKTTPPVLDSDGSFFLYSKLTVDKSRWQQGNVFSCSVMHEALHNHYTQKSLSLSPGGGGGSGGGGSSYVLTQPSSVSVAPGQTATISCGGHNIGSKNVHWYQQRPGQSPVLVIYQDNKRPSGIPERFSGSNSGNTATLTISGTQAMDEADYYCQVWDNYSVLFGGGTKLTVLGGSGGSGGSGGSGGSGGSGGSQVQLVQSGAEVKKPGESLKVSCKASGYTFTSYYMHWVRQAPGQGLEWMGIINPSGGSTSYAQKFQGRVTMTRDTSTSTVYMELSSLRSEDTAVYYCARGSAYYYDFADYWGQGTLVTVSS
chain 2: QPVLTQPPSVSVAPGKTARITCGGNNIGSKSVHWYQQKPGQAPVLVIYYDSDRPSGIPERFSGSNSGNTATLTISRVEAGDEADYYCQVWDTSSDHVLFGGGTKLTVLGQPKAAPSVTLFPPSSEELQANKATLVCLISDFYPGAVTVAWKADSSPVKAGVETTTPSKQSNNKYAASSYLSLTPEQWKSHRSYSCQVTHEGSTVEKTVAPTECS

Kd [5]: 50.8 nM
EC50 (read off the curve) (EGFR-antigen (ELISA)): ~7 nM
EC50 (read off the curve) (CD16A-antigen (ELISA)): ~4 nM
Kd [6]: 456 nM
B2: EGFR/CD16A/HSA aTriFlex (other)
chain 1: QVQLQESGPGLVKPSETLSLTCTVSGGSVSSGSYYWSWIRQPPGKGLEWIGYIYYSGSTNYNPSLKSRVTISVDTSKNQFSLKLSSVTAADTAVYYCARNPISIPAFDIWGQGTMVTVSSGGSGGSGGSGGSGGSGGSQPVLTQPPSVSVAPGKTARITCGGNNIGSKSVHWYQQKPGQAPVLVIYYDSDRPSGIPERFSGSNSGNTATLTISRVEAGDEADYYCQVWDTSSDHVLFGGGTKLTVLGGSGGSGGSSYVLTQPSSVSVAPGQTATISCGGHNIGSKNVHWYQQRPGQSPVLVIYQDNKRPSGIPERFSGSNSGNTATLTISGTQAMDEADYYCQVWDNYSVLFGGGTKLTVLGGSGGSGGSSYVLTQPSSVSVAPGQTATISCGGHNIGSKNVHWYQQRPGQSPVLVIYQDNKRPSGIPERFSGSNSGNTATLTISGTQAMDEADYYCQVWDNYSVLFGGGTKLTVLGGSGGSGGSEVQLLESGGGLVQPGGSLRLSCAVSGIDLSNYAINWVRQAPGKGLEWIGIIWASGTTFYATWAKGRFTISRDNSKNTVYLQMNSLRAEDTAVYYCARTVPGYSTAPYFDLWGQGTLVTVSSGGSGGSGGSGGSGGSGGSDIQMTQSPSSVSASVGDRVTITCQSSPSVWSNFLSWYQQKPGKAPKLLIYEASKLTSGVPSRFSGSGSGTDFTLTISSLQPEDFATYYCGGGYSSISDTTFGGGTKVEIK
chain 2: QVQLVQSGAEVKKPGESLKVSCKASGYTFTSYYMHWVRQAPGQGLEWMGIINPSGGSTSYAQKFQGRVTMTRDTSTSTVYMELSSLRSEDTAVYYCARGSAYYYDFADYWGQGTLVTVSSGGSGGSGGSQVQLVQSGAEVKKPGESLKVSCKASGYTFTSYYMHWVRQAPGQGLEWMGIINPSGGSTSYAQKFQGRVTMTRDTSTSTVYMELSSLRSEDTAVYYCARGSAYYYDFADYWGQGTLVTVSS
notes: also called EGFR/CD16A aTriFlex
EC50 [pM] mean, 4 h calcein-release cytotoxicity, A-431 target cells, human NK-cells E:T 5:1 (human EGFR on cells [3]): 5.1 pM
EC50 [pM] mean, 4 h calcein-release cytotoxicity, HCT-116 target cells, human NK-cells E:T 5:1 (human EGFR on cells [4]): 17.6 pM

EC50 (read off the curve) (human EGFR on cells [7]): ~2 nM
EC50 (read off the curve) [8]: ~6 nM
Kd [5]: 5 nM
Kd [9]: 268 nM
Kd (Human FcRn (FCGRT/B2M)): 410 nM
Kd (Mouse FcRn (FCGRT/B2M)): 121 nM
Kd [10]: 20 nM
EC50 (read off the curve) (EGFR-mFc): ~0.02 µg/mL
EC50 (read off the curve) (huCD16A^RV-His): ~4 nM
B3: Bi-scFv-Fc_02 (bispecific antibody, human IgG1)
chain: SYVLTQPSSVSVAPGQTATISCGGHNIGSKNVHWYQQRPGQSPVLVIYQDNKRPSGIPERFSGSNSGNTATLTISGTQAMDEADYYCQVWDNYSVLFGGGTKLTVLGGSGGSGGSGGSGGSGGSGGSQVQLVQSGAEVKKPGESLKVSCKASGYTFTSYYMHWVRQAPGQGLEWMGIINPSGGSTSYAQKFQGRVTMTRDTSTSTVYMELSSLRSEDTAVYYCARGSAYYYDFADYWGQGTLVTVSSEPKSCDKTHTCPPCPAPEFEGGPSVFLFPPKPKDTLMISRTPEVTCVVVAVSHEDPEVKFNWYVDGVEVHNAKTKPREEQYNSTYRVVSVLTVLHQDWLNGKEYKCKVSNKALPAPIEKTISKAKGQPREPQVYTLPPSREEMTKNQVSLTCLVKGFYPSDIAVEWESNGQPENNYKTTPPVLDSDGSFFLYSKLTVDKSRWQQGNVFSCSVMHEALHNHYTQKSLSLSPGGGGGSGGGGSQVQLQESGPGLVKPSETLSLTCTVSGGSVSSGSYYWSWIRQPPGKGLEWIGYIYYSGSTNYNPSLKSRVTISVDTSKNQFSLKLSSVTAADTAVYYCARNPISIPAFDIWGQGTMVTVSSGGSGGSGGSGGSGGSGGSQPVLTQPPSVSVAPGKTARITCGGNNIGSKSVHWYQQKPGQAPVLVIYYDSDRPSGIPERFSGSNSGNTATLTISRVEAGDEADYYCQVWDTSSDHVLFGGGTKLTVL
notes: Homodimer: anti-CD16A scFv-Hinge-CH2-CH3 (silenced)-anti-EGFR scFv; also called EGFR/CD16A Bi-scFv-Fc; Bi-scFv-Fc_2
EC50 [pM] mean, 4 h calcein-release cytotoxicity, A-431 target cells, human NK-cells E:T 5:1 (human EGFR on cells [3]): 2.7 pM
EC50 [pM] mean, 4 h calcein-release cytotoxicity, HCT-116 target cells, human NK-cells E:T 5:1 (human EGFR on cells [4]): 3.8 pM
